Source: US20050085418A1 (CELLTECH R AND D, published 2005)

B1: purified human sclerostin-FLAG® fusion protein (other, UniProt Q9BQB4 24-213, looked up)
chain: QGWQAFKNDATEIIPELGEYPEPPPELENNKTMNRAENGGRPPHHPFETKDVSEYSCRELHFTRYVTDGPCRSAKPVTELVCSGQCGPARLLPNAIGRGKWWRPSGPDFRCIPDRYRAQRVQLLCPGGEAPRARKVRLVASCKCKRLTRFHNQSELKDFGTEAARPQKGRKPRPRARSAKANQAELENAY
notes: Immobilised on CM5 chips (200 and 400 RU) or on anti-FLAG M2 agarose beads; also called FLAG®-Beer; FLAG®-tagged sclerostin; not shown: FLAG tag

Experiments:
[1] = molecular target: purified human sclerostin-FLAG® fusion protein (human) (UniProt Q9BQB4); experiment: SPR (Biacore), immobilised sclerostin
[2] = molecular target: T1, recombinant murine chordin (murine, UniProt Q9Z0E2 27-948, limits assumed); experiment: SPR, chip-immobilised recombinant human sclerostin, graded concentrations of recombinant murine chordin (FIG. 2A)
T1 sequence (looked up): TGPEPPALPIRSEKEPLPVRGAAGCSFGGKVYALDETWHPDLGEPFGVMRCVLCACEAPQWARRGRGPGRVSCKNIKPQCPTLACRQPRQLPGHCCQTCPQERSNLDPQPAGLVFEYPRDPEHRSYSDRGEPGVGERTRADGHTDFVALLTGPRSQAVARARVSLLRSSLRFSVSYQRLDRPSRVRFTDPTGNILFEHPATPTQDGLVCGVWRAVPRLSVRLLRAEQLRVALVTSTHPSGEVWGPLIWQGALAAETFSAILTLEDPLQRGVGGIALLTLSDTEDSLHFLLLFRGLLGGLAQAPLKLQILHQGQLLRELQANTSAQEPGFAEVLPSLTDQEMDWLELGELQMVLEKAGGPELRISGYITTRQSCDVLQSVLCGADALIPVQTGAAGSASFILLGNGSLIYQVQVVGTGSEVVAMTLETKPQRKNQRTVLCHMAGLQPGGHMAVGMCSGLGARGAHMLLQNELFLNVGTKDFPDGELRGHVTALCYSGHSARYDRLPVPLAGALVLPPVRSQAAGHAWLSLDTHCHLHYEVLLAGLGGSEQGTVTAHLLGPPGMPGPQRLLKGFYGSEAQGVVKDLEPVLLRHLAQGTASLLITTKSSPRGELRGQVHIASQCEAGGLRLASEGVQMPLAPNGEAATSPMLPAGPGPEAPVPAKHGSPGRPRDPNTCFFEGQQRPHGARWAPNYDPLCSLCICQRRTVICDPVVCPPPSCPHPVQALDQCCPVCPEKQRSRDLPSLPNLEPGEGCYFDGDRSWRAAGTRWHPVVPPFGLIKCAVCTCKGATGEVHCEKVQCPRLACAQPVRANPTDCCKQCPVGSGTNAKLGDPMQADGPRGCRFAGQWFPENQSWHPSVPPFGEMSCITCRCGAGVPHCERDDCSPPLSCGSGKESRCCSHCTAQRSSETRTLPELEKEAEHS
Description: (§1) The running buffer for Biacore analysis was HBS-EP CMD (10 mM HEPES, 150 mM NaCl, 3 mM EDTA, 0.005% polysorbate 20, and 1 mg/ml carboxyl-methyl dextran). […] The data was processed using the Bia-evaluation software by first correcting for background binding in a non-functionalized flow cell and analyzing the resulting binding curves for on/off rates.

[3] = molecular target: T1, recombinant murine chordin; experiment: SPR (Biacore), human sclerostin immobilised on the chip, rmChordin injected at 0.62 to 10 ug/ml [box under the left panel]
Noggin-Fc fusion protein [4] = molecular target: T2, Noggin-Fc fusion protein (murine, UniProt P97466 28-232, limits assumed); experiment: SPR, chip-immobilised recombinant human sclerostin, graded concentrations of recombinant murine noggin (FIG. 2B)
T2 construct: also called recombinant murine noggin; not shown: Fc portion, captured and detected with anti-human Fc antibodies
T2 sequence (looked up): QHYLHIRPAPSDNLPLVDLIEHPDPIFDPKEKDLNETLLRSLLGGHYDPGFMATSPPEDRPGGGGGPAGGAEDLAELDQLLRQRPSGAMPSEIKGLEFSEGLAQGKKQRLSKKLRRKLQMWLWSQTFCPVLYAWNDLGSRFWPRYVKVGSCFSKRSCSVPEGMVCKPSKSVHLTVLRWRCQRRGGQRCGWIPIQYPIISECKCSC
Description: as §1

Noggin-Fc fusion protein [5] = molecular target: T2, Noggin-Fc fusion protein; experiment: SPR (Biacore), human sclerostin immobilised on the chip, rmNoggin injected at 0.31 to 10 ug/ml [box under the right panel]
[6] = molecular target: B1; experiment: SPR (Biacore), immobilised sclerostin
Description: The running buffer for Biacore analysis was HBS-EP CMD (10 mM HEPES, 150 mM NaCl, 3 mM EDTA, 0.005 % polysorbate 20, and 1 mg/ml carboxyl-methyl dextran). […] BMP proteins were diluted in running buffer and injected over the sensor chip using the Biacore 3000 instrumentation. The data was processed using the Bia-evaluation software (Biacore) by first correcting for background binding in a non-functionalized flow cell and analyzing the resulting binding curves for on/off rates.

BMP-5 (ligand)
Kd [1]: < 15 nM

BMP-4 (ligand)
Kd [1]: < 15 nM

BMP-7 (ligand)
Kd [1]: < 15 nM

B1
Kd [2]: 1.76 nM
koff [3]: 0.00209 s⁻¹
kon [3]: 1.18e+06 M⁻¹ s⁻¹
Kd (Noggin-Fc fusion protein [4]): 2.92 nM
koff (Noggin-Fc fusion protein [5]): 0.00435 s⁻¹
kon (Noggin-Fc fusion protein [5]): 1.46e+06 M⁻¹ s⁻¹

B2: BMP-2 (ligand)
chain: QAKHKQRKRLKSSCKRHPLYVDFSDVGWNDWIVAPPGYHAFYCHGECPFPLADHLNSTNHAIVQTLVNSVNSKIPKACCVPTELSAISMLYLDENEKVVLKNYQDMVVEGCGCR
modifications: Disulfide-linked homodimer; one copy of the mature chain is given.
notes: Bought recombinant protein; also called recombinant BMP protein (R&D Systems)
Kd [6]: < 10 nM
